The values below come from US20210246166A1 (Bayer, published 2021).

Numbered stars: 1 amine (or outer) side, 2 acyl side, 3 side chain; on linkers, the order of the positions; unused ones are H or OH. Bridge positions count the residues as written; N and C are the ends. Square brackets hold non-standard residues; d marks the D form. Ends that are not written are not given here. NH(CH2CH2O)5CH2CO = O=C(COCCOCCOCCOCCOCCN[*:1])[*:2]; Pro(3S,4R-methano) = O=C(O)[C@H]1NC[C@@H]2C[C@@H]21; Phe(3-COOH) = N[C@@H](Cc1cccc(C(=O)O)c1)C(=O)O; Oic = O=C(O)[C@@H]1C[C@@H]2CCCC[C@@H]2N1; tBuAla = CC(C)(C)C[C@H](N)C(=O)O; Pen = CC(C)(S)[C@H](N)C(=O)O; NMeC = CN[C@@H](CS)C(=O)O; PEG3 = NCCOCCOCCOCCC(=O)O; Orn = NCCC[C@H](N)C(=O)O; Abu = CC[C@H](N)C(=O)O; PEG2 = NCCOCCOCCC(=O)O; Sar = CNCC(=O)O

T1: recombinant human MASP1 active protease (amino acids 297-699, C-terminal His Tag) (human, UniProt P48740 297-699)
T1 sequence: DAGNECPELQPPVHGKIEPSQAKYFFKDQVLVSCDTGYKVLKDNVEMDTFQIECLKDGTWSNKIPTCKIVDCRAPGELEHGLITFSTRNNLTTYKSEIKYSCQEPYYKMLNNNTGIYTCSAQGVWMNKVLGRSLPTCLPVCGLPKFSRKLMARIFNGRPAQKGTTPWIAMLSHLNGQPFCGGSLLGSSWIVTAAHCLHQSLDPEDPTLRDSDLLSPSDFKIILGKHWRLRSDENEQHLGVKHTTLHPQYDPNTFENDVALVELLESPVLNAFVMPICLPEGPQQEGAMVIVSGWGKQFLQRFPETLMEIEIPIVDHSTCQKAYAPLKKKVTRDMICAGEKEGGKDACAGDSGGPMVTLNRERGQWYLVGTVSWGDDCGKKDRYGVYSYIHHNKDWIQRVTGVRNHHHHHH

B1: VIC+SRS-((tBu)A)-PPI-(Pen)+IPD-NH2 (peptide)
peptide: VICSRS[tBuAla]PPI[Pen]IPD-NH2
modifications: disulfide 3-11; N-terminus assumed
SMILES: CC[C@H](C)[C@H](NC(=O)[C@@H](N)C(C)C)C(=O)N[C@H]1CSSC(C)(C)[C@@H](C(=O)N[C@H](C(=O)N2CCC[C@H]2C(=O)N[C@@H](CC(=O)O)C(N)=O)[C@@H](C)CC)NC(=O)[C@H]([C@@H](C)CC)NC(=O)[C@@H]2CCCN2C(=O)[C@@H]2CCCN2C(=O)[C@H](CC(C)(C)C)NC(=O)[C@H](CO)NC(=O)[C@H](CCCNC(=N)N)NC(=O)[C@H](CO)NC1=O
B2: ((N-Me)G)-IC+SRSLP-(Oic)-I-(Pen)+IPD-(PEG1(10 atoms))-NH2 (peptide)
peptide: [Sar]ICSRSLP[Oic]I[Pen]IPD[PEG2]-NH2
modifications: disulfide 3-11; N-terminus assumed
SMILES: CC[C@H](C)[C@H](NC(=O)CNC)C(=O)N[C@H]1CSSC(C)(C)[C@@H](C(=O)N[C@H](C(=O)N2CCC[C@H]2C(=O)N[C@@H](CC(=O)O)C(=O)NCCOCCOCCC(N)=O)[C@@H](C)CC)NC(=O)[C@H]([C@@H](C)CC)NC(=O)[C@@H]2C[C@@H]3CCCC[C@@H]3N2C(=O)[C@@H]2CCCN2C(=O)[C@H](CC(C)C)NC(=O)[C@H](CO)NC(=O)[C@H](CCCNC(=N)N)NC(=O)[C@H](CO)NC1=O
B3: LIC+SRS-((tBu)A)-PPI-(Pen)+IPD-NH2 (peptide)
peptide: LICSRS[tBuAla]PPI[Pen]IPD-NH2
modifications: disulfide 3-11; N-terminus assumed
SMILES: CC[C@H](C)[C@H](NC(=O)[C@@H](N)CC(C)C)C(=O)N[C@H]1CSSC(C)(C)[C@@H](C(=O)N[C@H](C(=O)N2CCC[C@H]2C(=O)N[C@@H](CC(=O)O)C(N)=O)[C@@H](C)CC)NC(=O)[C@H]([C@@H](C)CC)NC(=O)[C@@H]2CCCN2C(=O)[C@@H]2CCCN2C(=O)[C@H](CC(C)(C)C)NC(=O)[C@H](CO)NC(=O)[C@H](CCCNC(=N)N)NC(=O)[C@H](CO)NC1=O
B4: IIC+SRS-((tBu)A)-PPI-(Pen)+IPD-NH2 (peptide)
peptide: IICSRS[tBuAla]PPI[Pen]IPD-NH2
modifications: disulfide 3-11; N-terminus assumed
SMILES: CC[C@H](C)[C@H](N)C(=O)N[C@H](C(=O)N[C@H]1CSSC(C)(C)[C@@H](C(=O)N[C@H](C(=O)N2CCC[C@H]2C(=O)N[C@@H](CC(=O)O)C(N)=O)[C@@H](C)CC)NC(=O)[C@H]([C@@H](C)CC)NC(=O)[C@@H]2CCCN2C(=O)[C@@H]2CCCN2C(=O)[C@H](CC(C)(C)C)NC(=O)[C@H](CO)NC(=O)[C@H](CCCNC(=N)N)NC(=O)[C@H](CO)NC1=O)[C@@H](C)CC
B5: ((N-Me)G)-IC+SRS-((tBu)A)-PPI-(Pen)+IP-((N-Me)G)-((N-Me)G)-((N-Me)G)-NH2 (peptide)
peptide: [Sar]ICSRS[tBuAla]PPI[Pen]IP[Sar][Sar][Sar]-NH2
modifications: disulfide 3-11; N-terminus assumed
SMILES: CC[C@H](C)[C@H](NC(=O)CNC)C(=O)N[C@H]1CSSC(C)(C)[C@@H](C(=O)N[C@H](C(=O)N2CCC[C@H]2C(=O)N(C)CC(=O)N(C)CC(=O)N(C)CC(N)=O)[C@@H](C)CC)NC(=O)[C@H]([C@@H](C)CC)NC(=O)[C@@H]2CCCN2C(=O)[C@@H]2CCCN2C(=O)[C@H](CC(C)(C)C)NC(=O)[C@H](CO)NC(=O)[C@H](CCCNC(=N)N)NC(=O)[C@H](CO)NC1=O
B6: ((N-Me)G)-IC+SRS-((tBu)A)-PPI-(Pen)+IP-(PEG5-CH2CO2H (18 atoms))-NH2 (peptide)
peptide: [Sar]ICSRS[tBuAla]PPI[Pen]IP[NH(CH2CH2O)5CH2CO]-NH2
modifications: disulfide 3-11; N-terminus assumed
SMILES: CC[C@H](C)[C@H](NC(=O)CNC)C(=O)N[C@H]1CSSC(C)(C)[C@@H](C(=O)N[C@H](C(=O)N2CCC[C@H]2C(=O)NCCOCCOCCOCCOCCOCC(N)=O)[C@@H](C)CC)NC(=O)[C@H]([C@@H](C)CC)NC(=O)[C@@H]2CCCN2C(=O)[C@@H]2CCCN2C(=O)[C@H](CC(C)(C)C)NC(=O)[C@H](CO)NC(=O)[C@H](CCCNC(=N)N)NC(=O)[C@H](CO)NC1=O
B7: LIC+SRS-((tBu)A)-PPI-((N-Me)C)+I-NH2 (peptide)
peptide: LICSRS[tBuAla]PPI[NMeC]I-NH2
modifications: disulfide 3-11; N-terminus assumed
SMILES: CC[C@H](C)[C@H](NC(=O)[C@@H]1CSSC[C@H](NC(=O)[C@@H](NC(=O)[C@@H](N)CC(C)C)[C@@H](C)CC)C(=O)N[C@@H](CO)C(=O)N[C@@H](CCCNC(=N)N)C(=O)N[C@@H](CO)C(=O)N[C@@H](CC(C)(C)C)C(=O)N2CCC[C@H]2C(=O)N2CCC[C@H]2C(=O)N[C@@H]([C@@H](C)CC)C(=O)N1C)C(N)=O
B8: ((N-Me)G)-IC+SRS-((tBu)A)-PPI-(Pen)+IPD-(Orn)-(Orn)-(Orn)-NH2 (peptide)
peptide: [Sar]ICSRS[tBuAla]PPI[Pen]IPD[Orn][Orn][Orn]-NH2
modifications: disulfide 3-11; N-terminus assumed
SMILES: CC[C@H](C)[C@H](NC(=O)CNC)C(=O)N[C@H]1CSSC(C)(C)[C@@H](C(=O)N[C@H](C(=O)N2CCC[C@H]2C(=O)N[C@@H](CC(=O)O)C(=O)N[C@@H](CCCN)C(=O)N[C@@H](CCCN)C(=O)N[C@@H](CCCN)C(N)=O)[C@@H](C)CC)NC(=O)[C@H]([C@@H](C)CC)NC(=O)[C@@H]2CCCN2C(=O)[C@@H]2CCCN2C(=O)[C@H](CC(C)(C)C)NC(=O)[C@H](CO)NC(=O)[C@H](CCCNC(=N)N)NC(=O)[C@H](CO)NC1=O
B9: (Abu)-IC+SRS-((tBu)A)-PPIC+IPD-NH2 (peptide)
peptide: [Abu]ICSRS[tBuAla]PPICIPD-NH2
modifications: disulfide 3-11; N-terminus assumed
SMILES: CC[C@H](N)C(=O)N[C@H](C(=O)N[C@H]1CSSC[C@@H](C(=O)N[C@H](C(=O)N2CCC[C@H]2C(=O)N[C@@H](CC(=O)O)C(N)=O)[C@@H](C)CC)NC(=O)[C@H]([C@@H](C)CC)NC(=O)[C@@H]2CCCN2C(=O)[C@@H]2CCCN2C(=O)[C@H](CC(C)(C)C)NC(=O)[C@H](CO)NC(=O)[C@H](CCCNC(=N)N)NC(=O)[C@H](CO)NC1=O)[C@@H](C)CC
B10: ((N-Me)G)-IC+SRSLP-(Oic)-I-(Pen)+IPD-(PEG2(13 atoms))-NH2 (peptide)
peptide: [Sar]ICSRSLP[Oic]I[Pen]IPD[PEG3]-NH2
modifications: disulfide 3-11; N-terminus assumed
SMILES: CC[C@H](C)[C@H](NC(=O)CNC)C(=O)N[C@H]1CSSC(C)(C)[C@@H](C(=O)N[C@H](C(=O)N2CCC[C@H]2C(=O)N[C@@H](CC(=O)O)C(=O)NCCOCCOCCOCCC(N)=O)[C@@H](C)CC)NC(=O)[C@H]([C@@H](C)CC)NC(=O)[C@@H]2C[C@@H]3CCCC[C@@H]3N2C(=O)[C@@H]2CCCN2C(=O)[C@H](CC(C)C)NC(=O)[C@H](CO)NC(=O)[C@H](CCCNC(=N)N)NC(=O)[C@H](CO)NC1=O
B11: ((N-Me)G)-IC+SRS-((tBu)A)-PPI-(Pen)+IP-((3-Carboxy)F)-NH2 (peptide)
peptide: [Sar]ICSRS[tBuAla]PPI[Pen]IP[Phe(3-COOH)]-NH2
modifications: disulfide 3-11; N-terminus assumed
SMILES: CC[C@H](C)[C@H](NC(=O)CNC)C(=O)N[C@H]1CSSC(C)(C)[C@@H](C(=O)N[C@H](C(=O)N2CCC[C@H]2C(=O)N[C@@H](Cc2cccc(C(=O)O)c2)C(N)=O)[C@@H](C)CC)NC(=O)[C@H]([C@@H](C)CC)NC(=O)[C@@H]2CCCN2C(=O)[C@@H]2CCCN2C(=O)[C@H](CC(C)(C)C)NC(=O)[C@H](CO)NC(=O)[C@H](CCCNC(=N)N)NC(=O)[C@H](CO)NC1=O
B12: AIC+SRSLP-(Oic)-I-(Pen)+I-NH2 (peptide)
peptide: AICSRSLP[Oic]I[Pen]I-NH2
modifications: disulfide 3-11; N-terminus assumed
SMILES: CC[C@H](C)[C@H](NC(=O)[C@H]1NC(=O)[C@H]([C@@H](C)CC)NC(=O)[C@@H]2C[C@@H]3CCCC[C@@H]3N2C(=O)[C@@H]2CCCN2C(=O)[C@H](CC(C)C)NC(=O)[C@H](CO)NC(=O)[C@H](CCCNC(=N)N)NC(=O)[C@H](CO)NC(=O)[C@@H](NC(=O)[C@@H](NC(=O)[C@H](C)N)[C@@H](C)CC)CSSC1(C)C)C(N)=O
B13: ((N-Me)G)-IC+SRSL-((1S,2S,5R)-3-azabicyclo[3.1.0]hexane-2-carboxylic acid)-PI-(Pen)+IP-NH2 (peptide)
peptide: [Sar]ICSRSL[Pro(3S,4R-methano)]PI[Pen]IP-NH2
modifications: disulfide 3-11; N-terminus assumed
SMILES: CC[C@H](C)[C@H](NC(=O)CNC)C(=O)N[C@H]1CSSC(C)(C)[C@@H](C(=O)N[C@H](C(=O)N2CCC[C@H]2C(N)=O)[C@@H](C)CC)NC(=O)[C@H]([C@@H](C)CC)NC(=O)[C@@H]2CCCN2C(=O)[C@@H]2[C@H]3C[C@H]3CN2C(=O)[C@H](CC(C)C)NC(=O)[C@H](CO)NC(=O)[C@H](CCCNC(=N)N)NC(=O)[C@H](CO)NC1=O

One assay has as its target T1, recombinant human MASP1 active protease …. The experiment in a line: cell-based or functional assay.
On to B1, for which the “human MASP1 IC50” value amounted to 2 nM.
As for B2, the “human MASP1 IC50” value amounted to 0.93 nM.
[Sar]ICSRSLP[Oic]I[Pen]IP-NH2 (disulfide 3-11; also: HCl salt) [((N-Me)G)-IC+SRSLP-(Oic)-I-(Pen)+IP-NH2 (HCl salt)]: the “human MASP1 IC50” value was found to be 2.2 nM.
For the molecule B3, the “human MASP1 IC50” value is 2.2 nM.
Consider B4, for which the “human MASP1 IC50” value worked out at 2.1 nM.
For B5, the “human MASP1 IC50” value was 2 nM.
Same read-out and setting: to B6 belongs 2 nM; to B7, 2.2 nM.
The same measure, in the same setting: to B8 belongs 2 nM; to B9, 2.2 nM.
With B10, the “human MASP1 IC50” value came to 2.1 nM.
The same measure, in the same setting: to B11 belongs 2 nM; to B12, 2.1 nM.
Regarding B13, the “human MASP1 IC50” value came to 2.1 nM.

For a further assay, the target named is recombinant human MASP2 active protease (amino acids 297-686, C-terminal His Tag) (human, UniProt O00187 297-686). The assay can be described thus: cell-based or functional assay.
Sequence of recombinant human MASP2 active protease (amino acids 297-686, C-terminal His Tag) (O00187 other isoform, or with tags, fused parts or gaps limits assumed): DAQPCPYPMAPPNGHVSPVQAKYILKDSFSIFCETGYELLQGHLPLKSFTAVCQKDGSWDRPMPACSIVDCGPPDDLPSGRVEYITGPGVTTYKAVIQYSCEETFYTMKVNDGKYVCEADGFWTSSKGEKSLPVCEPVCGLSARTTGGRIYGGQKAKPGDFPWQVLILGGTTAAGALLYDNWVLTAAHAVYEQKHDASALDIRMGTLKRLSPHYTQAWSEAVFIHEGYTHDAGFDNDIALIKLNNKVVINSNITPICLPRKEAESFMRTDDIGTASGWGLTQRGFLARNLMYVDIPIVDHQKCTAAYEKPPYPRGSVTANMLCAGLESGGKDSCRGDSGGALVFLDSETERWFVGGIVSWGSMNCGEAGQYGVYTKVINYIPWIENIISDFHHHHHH
As for B1, the “human MASP2 IC50” value is 73 nM.
For the molecule B2, the “human MASP2 IC50” value amounted to 68 nM.
For the molecule [Sar]ICSRSLP[Oic]I[Pen]IP-NH2 (disulfide 3-11; also: HCl salt) [((N-Me)G)-IC+SRSLP-(Oic)-I-(Pen)+IP-NH2 (HCl salt)], the “human MASP2 IC50” value was 43 nM.
Still for that read-out and setting: to B3 belongs 70 nM; to B4, 72 nM; to B5, 47 nM.
With B6, the “human MASP2 IC50” value was found to be 42 nM.
The same measure, in the same setting: the value for B7 was 98 nM; that for B8 was 130 nM; that for B9 was 120 nM.
B10: the “human MASP2 IC50” value was found to be 96 nM.
In the case of B11, the “human MASP2 IC50” value came to 42 nM.
As for B12, the “human MASP2 IC50” value worked out at 98 nM.
With B13, the “human MASP2 IC50” value came to 20 nM.
